Assays:
CSL (RBPJ) [1] = target: T1, CSL (RBPJ) (Mus musculus, UniProt P31266 53-474); assay: ITC; K = 5.9 +/- 1.0 x10^5 M-1; n=3; ITC: 50 mM sodium phosphate pH 6.5, 150 mM NaCl, 10 C (10 uM CSL in cell, 100 uM DNA in syringe). EMSA: 150 mM KCl, 50 mM Tris pH 7.4, 1 mM DTT, 2% polyvinyl alcohol, 30 ng/ul poly(dI-dC), on ice 30 min, 25 fmol biotin probe in 5 ul; conditions: protein: recombinant; tags: GST tag cleaved off
GST-Su(H) (CSL) [2] = target: T2, GST-Su(H) (CSL) (Drosophila melanogaster?, UniProt P28159 110-594); assay: competition; failed to compete at 125x; ITC: 50 mM sodium phosphate pH 6.5, 150 mM NaCl, 10 C (10 uM CSL in cell, 100 uM DNA in syringe). EMSA: 150 mM KCl, 50 mM Tris pH 7.4, 1 mM DTT, 2% polyvinyl alcohol, 30 ng/ul poly(dI-dC), on ice 30 min, 25 fmol biotin probe in 5 ul; conditions: protein: recombinant; tags: N-terminal GST; blunt
T2 sequence (P28159 110-594): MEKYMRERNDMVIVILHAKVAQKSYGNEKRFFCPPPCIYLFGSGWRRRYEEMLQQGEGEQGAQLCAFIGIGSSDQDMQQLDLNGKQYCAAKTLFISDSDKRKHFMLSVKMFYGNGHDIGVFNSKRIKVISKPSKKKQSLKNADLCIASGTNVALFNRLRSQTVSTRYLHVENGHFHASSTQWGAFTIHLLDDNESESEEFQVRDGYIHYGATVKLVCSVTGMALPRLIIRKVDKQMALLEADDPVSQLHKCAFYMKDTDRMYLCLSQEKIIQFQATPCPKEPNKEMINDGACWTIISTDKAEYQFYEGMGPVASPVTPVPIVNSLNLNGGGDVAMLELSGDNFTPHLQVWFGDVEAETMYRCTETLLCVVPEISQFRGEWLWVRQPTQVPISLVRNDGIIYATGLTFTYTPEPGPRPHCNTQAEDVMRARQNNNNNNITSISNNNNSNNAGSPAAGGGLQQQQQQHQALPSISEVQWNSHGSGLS

GST-Su(H) (CSL) [3] = target: T2, GST-Su(H) (CSL); assay: competition; EMSA, labeled M1 probe; 2.4-fold vs M3; ITC: 50 mM sodium phosphate pH 6.5, 150 mM NaCl, 10 C (10 uM CSL in cell, 100 uM DNA in syringe). EMSA: 150 mM KCl, 50 mM Tris pH 7.4, 1 mM DTT, 2% polyvinyl alcohol, 30 ng/ul poly(dI-dC), on ice 30 min, 25 fmol biotin probe in 5 ul; conditions: protein: recombinant; tags: N-terminal GST; blunt
T2 sequence (P28159 110-594): as above

GST-Su(H) (CSL) [4] = target: T2, GST-Su(H) (CSL); assay: competition; not detectable at 125x excess; ITC: 50 mM sodium phosphate pH 6.5, 150 mM NaCl, 10 C (10 uM CSL in cell, 100 uM DNA in syringe). EMSA: 150 mM KCl, 50 mM Tris pH 7.4, 1 mM DTT, 2% polyvinyl alcohol, 30 ng/ul poly(dI-dC), on ice 30 min, 25 fmol biotin probe in 5 ul; conditions: protein: recombinant; tags: N-terminal GST; blunt
CSL (RBPJ) [5] = target: T1, CSL (RBPJ); assay: ITC; no binding detected; ITC: 50 mM sodium phosphate pH 6.5, 150 mM NaCl, 10 C (10 uM CSL in cell, 100 uM DNA in syringe). EMSA: 150 mM KCl, 50 mM Tris pH 7.4, 1 mM DTT, 2% polyvinyl alcohol, 30 ng/ul poly(dI-dC), on ice 30 min, 25 fmol biotin probe in 5 ul; conditions: protein: recombinant; tags: GST tag cleaved off
GST-Su(H) (CSL) [6] = target: T2, GST-Su(H) (CSL); assay: EMSA; labeled probe; self-competes at 25x excess; ITC: 50 mM sodium phosphate pH 6.5, 150 mM NaCl, 10 C (10 uM CSL in cell, 100 uM DNA in syringe). EMSA: 150 mM KCl, 50 mM Tris pH 7.4, 1 mM DTT, 2% polyvinyl alcohol, 30 ng/ul poly(dI-dC), on ice 30 min, 25 fmol biotin probe in 5 ul; conditions: protein: recombinant; tags: N-terminal GST; label: 3' biotin when used as probe; blunt
CSL (RBPJ) [7] = target: T1, CSL (RBPJ); assay: ITC; K = 2.2 +/- 1.4 x10^7 M-1; n=3; ITC: 50 mM sodium phosphate pH 6.5, 150 mM NaCl, 10 C (10 uM CSL in cell, 100 uM DNA in syringe). EMSA: 150 mM KCl, 50 mM Tris pH 7.4, 1 mM DTT, 2% polyvinyl alcohol, 30 ng/ul poly(dI-dC), on ice 30 min, 25 fmol biotin probe in 5 ul; conditions: protein: recombinant; tags: GST tag cleaved off
GST-Su(H) (CSL) [8] = target: T2, GST-Su(H) (CSL); assay: competition; EMSA, labeled M1 probe; 2.84-fold at 10x; ITC: 50 mM sodium phosphate pH 6.5, 150 mM NaCl, 10 C (10 uM CSL in cell, 100 uM DNA in syringe). EMSA: 150 mM KCl, 50 mM Tris pH 7.4, 1 mM DTT, 2% polyvinyl alcohol, 30 ng/ul poly(dI-dC), on ice 30 min, 25 fmol biotin probe in 5 ul; conditions: protein: recombinant; tags: N-terminal GST; blunt
CSL (RBPJ) [9] = target: T1, CSL (RBPJ); assay: ITC; K = 2.0 +/- 0.5 x10^6 M-1; n=3; ITC: 50 mM sodium phosphate pH 6.5, 150 mM NaCl, 10 C (10 uM CSL in cell, 100 uM DNA in syringe). EMSA: 150 mM KCl, 50 mM Tris pH 7.4, 1 mM DTT, 2% polyvinyl alcohol, 30 ng/ul poly(dI-dC), on ice 30 min, 25 fmol biotin probe in 5 ul; conditions: protein: recombinant; tags: GST tag cleaved off

T1 sequence (P31266 53-474): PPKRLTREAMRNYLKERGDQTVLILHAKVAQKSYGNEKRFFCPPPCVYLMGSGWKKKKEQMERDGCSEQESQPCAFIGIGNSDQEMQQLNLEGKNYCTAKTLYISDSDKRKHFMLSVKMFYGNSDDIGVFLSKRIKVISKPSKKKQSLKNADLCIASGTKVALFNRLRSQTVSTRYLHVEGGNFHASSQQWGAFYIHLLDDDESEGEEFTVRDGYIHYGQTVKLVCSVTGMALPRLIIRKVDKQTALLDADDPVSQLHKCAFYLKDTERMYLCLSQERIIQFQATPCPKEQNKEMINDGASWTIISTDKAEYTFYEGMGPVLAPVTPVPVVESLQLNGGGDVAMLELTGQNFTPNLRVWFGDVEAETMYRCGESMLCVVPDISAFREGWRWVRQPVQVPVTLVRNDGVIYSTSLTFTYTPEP

B1: ITC duplex CGTGTGAC (dsDNA)
DNA 1: GTTACCGTGTGACAGAAAG
DNA 2: CTTTCTGTCACACGGTAAC
With B1 the Kd (CSL (RBPJ) [1]) was 1720 nM.

B2: M8 (S7, TATAAGAA) (dsDNA)
DNA 1: ACCGAAACTATAAGAACTGGTAGAAAG
DNA 2: CTTTCTACCAGTTCTTATAGTTTCGGT
B2: no binding (GST-Su(H) (CSL) [2]).

B3: M4 (S3, CGTGTGAA) (dsDNA)
DNA 1: ACCGAAACCGTGTGAACTGGTAGAAAG
DNA 2: CTTTCTACCAGTTCACACGGTTTCGGT
B3 was tested, and the binding signal (GST-Su(H) (CSL) [3]) was 9 fold difference vs M1 at 25x excess.

B4: M11 (S10, CATGGGGA) (dsDNA)
DNA 1: ACCGAAACCATGGGGACTGGTAGAAAG
DNA 2: CTTTCTACCAGTCCCCATGGTTTCGGT
B4: no binding (GST-Su(H) (CSL) [4]).

B5: ITC duplex TCATACCT (dsDNA)
DNA 1: GCTACTCATACCTAGAACG
DNA 2: CGTTCTAGGTATGAGTAGC
B5: no binding (CSL (RBPJ) [5]).

B6: M1 (S1, CGTGGGAA) (dsDNA)
DNA 1: ACCGAAACCGTGGGAACTGGTAGAAAG
DNA 2: CTTTCTACCAGTTCCCACGGTTTCGGT
B6: binds (GST-Su(H) (CSL) [6]).

B7: ITC duplex CGTGGGAA (dsDNA)
DNA 1: GTTACCGTGGGAAAGAAAG
DNA 2: CTTTCTTTCCCACGGTAAC
In the case of B7, the Kd (CSL (RBPJ) [7]) is reported as 60 nM.

B8: M3 (S2, TGTGGGAA) (dsDNA)
DNA 1: ACCGAAACTGTGGGAACTGGTAGAAAG
DNA 2: CTTTCTACCAGTTCCCACTGTTTCGGT
B8 was tested, and the binding signal (GST-Su(H) (CSL) [8]) was 3.67 fold difference vs M1 at 25x excess.

B9: ITC duplex TGTGGGAA (dsDNA)
DNA 1: GTTACTGTGGGAAAGAAAG
DNA 2: CTTTCTTTCCCACAGTAAC
B9 was tested, and the Kd (CSL (RBPJ) [9]) was 500 nM.
